± gives the standard deviation of the averaged measurements.
tested on: ATP; assay: switch fluorescence ratio, 500 uM ATP over buffer (Cy3 cluster intensity, sum of 5 cycles each) (fold (ratio)); higher = stronger signal-on switching upon ATP binding; sequences stand for … in TCGTCGGCAGCGTCAGATGTGTATAAGAGACAGTTTTTTTTTTTTTTTTTTTTTTTTT…TC; details: aptamer strand: ATP DNA aptamer (quencher-CACCTGGGGGAGTATTGCGGAGGAAGG + anchor), 100 nM annealed; ATP concentration: 500 uM
How it was run: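 Five buffer/ATP imaging cycles were run on Cy3-labelled switching-strand clusters on a modified Illumina MiSeq flow-cell, with NaOH stripping and re-annealing between cycles. In each cycle, clusters annealed to 100 nM quencher-labelled ATP aptamer were imaged in selection buffer, then after 15 min with 500 uM ATP at 22 °C. Per cluster, the fluorescence ratio is summed target-cycle over summed buffer-cycle Cy3 intensity, averaged per switch-domain sequence. Only clusters within 100-1000 RFU were kept.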
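Note: ATP exposure 15 min at 22 °C before imaging.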

Sequence | switch fluorescence ratio
TTAAGTCAGT | 0.9717 ± 0.005
TTAAGTGAAT | 0.979 ± 0.066
TTAAGTGAC | 1.06 ± 0.028
TTAAGTGCTC | 0.983 ± 0.031
TTAAGTGGGG | 1.02 ± 0.011
TTAAGTGGTG | 1.01 ± 0.017
TTAAGTGTAA | 0.9697 ± 0.0036
TTAAGTTGAT | 0.988 ± 0.033
TTAAGTTTAC | 1.01 ± 0.038
TTAATAAAAA | 0.985 ± 0.028
TTAATAAGGG | 1 ± 0.024
TTAATACTGT | 1.03 ± 0.016
TTAATAGTGG | 1.03 ± 0.073
TTAATAGTGT | 1 ± 0.013
TTAATATTGT | 1.029 ± 0.0062
TTAATCCCCC | 1.04 ± 0.042
TTAATCCCGT | 1.04 ± 0.048
TTAATCGTGC | 0.98 ± 0.043
TTAATCTGAG | 1.02 ± 0.012
TTAATGCTAT | 0.9836 ± 0.0043
TTAATGGGGC | 1.01 ± 0.061
TTAATGGGGT | 1 ± 0.039
TTAATGGTTA | 1.02 ± 0.029
TTAATGTTGT | 1 ± 0.035
TTAATTCATG | 1.01 ± 0.017

Sequence | switch fluorescence ratio
TTAATTGGGG | 1.06 ± 0.1
TTAATTTATC | 0.9982 ± 0.0026
TTAATTTGGT | 0.971 ± 0.03
TTACAAGGGC | 1.013 ± 0.0087
TTACAAGTTT | 1.14 ± 0.19
TTACACAGGT | 1.12 ± 0.067
TTACAGCTAG | 1.01 ± 0.056
TTACAGGGG | 1.18 ± 0.027
TTACAGGTTC | 1.031 ± 0.0019
TTACAGTTCA | 1.026 ± 0.0058
TTACATGTTG | 1.04 ± 0.04
TTACCATTAG | 0.965 ± 0.011
TTACCCCGTG | 1.13 ± 0.022
TTACCGGGCA | 1.033 ± 0.0093
TTACCGGGCT | 1.051 ± 0.004
TTACCTTTCT | 1.64 ± 0.64
TTACGAAAAG | 1.08 ± 0.14
TTACGAAACG | 1.08 ± 0.045
TTACGAAAGA | 1.07 ± 0.032
TTACGATGTG | 1.018 ± 0.0091
TTACGGATTC | 1.39 ± 0.5
TTACGGGAAT | 1.08 ± 0.1
TTACGGGGGA | 1.03 ± 0.072
TTACGGGTAT | 1.01 ± 0.039
TTACGGGTGC | 1.19 ± 0.033

Sequence | switch fluorescence ratio
TTACGGTATA | 1.17 ± 0.038
TTACGTAGAT | 1.12 ± 0.077
TTACGTGCTG | 0.9806 ± 0.0083
TTACGTGGTT | 1.07 ± 0.026
TTACTAAGGG | 1.04 ± 0.04
TTACTAGATG | 1.02 ± 0.021
TTACTATGTA | 1.02 ± 0.019
TTACTGAGGT | 0.992 ± 0.017
TTACTGATCG | 1.025 ± 0.0073
TTACTGCGGT | 1.014 ± 0.0034
TTACTGCTCG | 1.01 ± 0.03
TTACTGTGTT | 1 ± 0.034
TTACTTAGGG | 1.14 ± 0.17
TTACTTATTT | 1.04 ± 0.035
TTACTTCATA | 1.021 ± 0.0045
TTACTTGAAT | 0.969 ± 0.039
TTACTTGGGA | 1 ± 0.012
TTACTTTATT | 1.05 ± 0.053
TTACTTTTAC | 1.13 ± 0.14
TTACTTTTGC | 1.01 ± 0.065
TTAGAAAAGG | 1 ± 0.032
TTAGAACACA | 0.983 ± 0.0063
TTAGAAGGGA | 1.01 ± 0.056
TTAGACGTTC | 0.99809 ± 0.00032
TTAGAGATTC | 0.961 ± 0.031

Sequence | switch fluorescence ratio
TTAGAGCTGG | 1.01 ± 0.027
TTAGAGCTTC | 1.01 ± 0.038
TTAGAGGATT | 1.004 ± 0.007
TTAGAGGGA | 1 ± 0.047
TTAGAGGGGA | 0.985 ± 0.031
TTAGAGGGTA | 0.9736 ± 0.0085
TTAGAGGGTC | 0.9952 ± 0.0013
TTAGATCATG | 1.01 ± 0.023
TTAGATGGTG | 1.02 ± 0.033
TTAGATTCGG | 0.997 ± 0.039
TTAGATTGCA | 1.001 ± 0.0083
TTAGCAAATA | 1.155 ± 0.0099
TTAGCAGGTG | 2.78 ± 0.1
TTAGCATCTA | 0.999 ± 0.018
TTAGCCACGC | 0.9902 ± 0.0029
TTAGCGAGTT | 0.979 ± 0.014
TTAGCGCTGG | 1.01 ± 0.015
TTAGCGGCAG | 0.9883 ± 0.0034
TTAGCGGTAT | 1.08 ± 0.087
TTAGCGGTGT | 1.07 ± 0.14
TTAGCGTGCG | 0.953 ± 0.054
TTAGCTGCGG | 0.9951 ± 0.0042
TTAGCTGGCA | 1 ± 0.027
TTAGGAAAGG | 1.06 ± 0.12
TTAGGAAAGT | 0.9873 ± 0.0075

Sequence | switch fluorescence ratio
TTAGGACGCT | 1.03 ± 0.036
TTAGGACTTT | 0.975 ± 0.037
TTAGGAGAAA | 1.03 ± 0.053
TTAGGATATA | 1 ± 0.046
TTAGGATG | 1.01 ± 0.0092
TTAGGCCAGG | 1.05 ± 0.017
TTAGGGAAAA | 0.983 ± 0.038
TTAGGGAATT | 0.989 ± 0.046
TTAGGGGACG | 0.981 ± 0.04
TTAGGGGATT | 1.01 ± 0.027
TTAGGGTCGG | 1 ± 0.036
TTAGGGTGGT | 0.99 ± 0.018
TTAGGGTTGT | 1 ± 0.023
TTAGGTGCGT | 1.08 ± 0.028
TTAGGTGGGC | 1.08 ± 0.021
TTAGGTTATT | 0.9786 ± 0.0027
TTAGGTTGCA | 0.9809 ± 0.0092
TTAGTAAGGC | 1.22 ± 0.2
TTAGTAATTC | 1.12 ± 0.15
TTAGTAGATT | 0.991 ± 0.036
TTAGTATTGG | 1.02 ± 0.019
TTAGTCCGTG | 1.01 ± 0.036
TTAGTGAGGG | 0.99 ± 0.042
TTAGTGGACT | 1.02 ± 0.016
TTAGTGGCCC | 0.99 ± 0.016

Sequence | switch fluorescence ratio
TTAGTGGCTT | 0.994 ± 0.035
TTAGTGGGAG | 0.966 ± 0.033
TTAGTGTGTG | 0.994 ± 0.011
TTAGTTATTT | 0.999 ± 0.035
TTAGTTCCTT | 1.01 ± 0.024
TTAGTTGAGG | 0.987 ± 0.05
TTAGTTGGAC | 1.03 ± 0.038
TTAGTTGGGC | 1.01 ± 0.069
TTAGTTTAAG | 0.999 ± 0.017
TTAGTTTAGG | 0.9824 ± 0.0096
TTAGTTTCAG | 1.012 ± 0.0033
TTAGTTTGCA | 1.02 ± 0.022
TTAGTTTGCT | 1.01 ± 0.019
TTAGTTTTGG | 1.04 ± 0.046
TTATAAAAGT | 0.962 ± 0.011
TTATAAATAT | 1.08 ± 0.044
TTATAAGCTT | 0.997 ± 0.021
TTATAAGGTT | 1.02 ± 0.023
TTATAATAG | 1.039 ± 0.0073
TTATAATCCG | 0.988 ± 0.031
TTATAATGGC | 1.02 ± 0.08
TTATACATGG | 1.07 ± 0.0024
TTATACGGAA | 1.11 ± 0.057
TTATACGGAG | 1.01 ± 0.025
TTATACTCTT | 1.01 ± 0.026

Sequence | switch fluorescence ratio
TTATAGAATG | 0.985 ± 0.038
TTATAGACAG | 0.997 ± 0.034
TTATAGCCCA | 1.0151 ± 0.00025
TTATAGCCTT | 1.04 ± 0.046
TTATAGGAAC | 1.02 ± 0.013
TTATAGGGAG | 0.97261 ± 0.00039
TTATAGGTTG | 0.984 ± 0.02
TTATAGGTTT | 1 ± 0.019
TTATAGTCGT | 1 ± 0.015
TTATAGTGGG | 1 ± 0.022
TTATAGTTAT | 1.001 ± 0.0029
TTATATTAAG | 1.01 ± 0.031
TTATATTAGC | 1 ± 0.054
TTATATTAGT | 0.9919 ± 0.0056
TTATATTCTT | 0.9964 ± 0.0042
TTATCACTCG | 1.01 ± 0.0054
TTATCGAGAA | 0.9879 ± 0.0024
TTATCGCTTG | 0.9974 ± 0.003
TTATCGGGG | 0.942 ± 0.053
TTATCTAAGT | 1 ± 0.036
TTATCTAGTG | 0.9894 ± 0.0054
TTATCTGGAA | 1.06 ± 0.055
TTATCTGTTT | 1.02 ± 0.028
TTATCTTAAT | 1.01 ± 0.015
TTATCTTACA | 0.996 ± 0.059

Sequence | switch fluorescence ratio
TTATGAAAGC | 1.02 ± 0.042
TTATGAAGAT | 0.963 ± 0.029
TTATGAGGCT | 1.01 ± 0.013
TTATGATGGT | 0.992 ± 0.018
TTATGCAAAG | 1.1 ± 0.15
TTATGCATCG | 0.9768 ± 0.0047
TTATGCGGAT | 1.02 ± 0.015
TTATGCGGTT | 0.992 ± 0.02
TTATGCTATG | 1.055 ± 0.0034
TTATGCTATT | 1 ± 0.022
TTATGCTTTT | 1.0043 ± 0.00054
TTATGGATGT | 1.03 ± 0.013
TTATGGGAAC | 0.97391 ± 0.00081
TTATGGGAGA | 1.04 ± 0.042
TTATGGGGAA | 0.987 ± 0.015
TTATGGGGGA | 1.01 ± 0.018
TTATGGGGGG | 1.01 ± 0.042
TTATGGTGT | 1.0044 ± 0.00076
TTATGTAAGG | 0.971 ± 0.014
TTATGTATGT | 0.996 ± 0.017
TTATGTGTTT | 1.014 ± 0.006
TTATGTTGTT | 1 ± 0.018
TTATTAAAAC | 0.999 ± 0.013
TTATTAAAAG | 1.2 ± 0.39
TTATTAAGTG | 1 ± 0.017
